Legend:
[1] = biological target: Human polyclonal IgG (human); assay: affinity constant, method not stated; table prints no power of ten
[2] = biological target: Human polyclonal IgG (human); assay: affinity constant, method not stated; same result as the 1st table, row 8, column 7 but printed with its power of ten

Ka [1]: 20 M⁻¹ | Ka [2]: 2e+10 M⁻¹
B1: Protein LG (protein)
chain: AVENKEETPETPETDSEEEVTIKANLIFANGSTQTAEFKGTFEKATSEAYAYADTLKKDNGEYTVDVADKGYTLNIKFAGKEKTPEEPKEEVTIKANLIYADGKTQTAEFKGTFEEATAEAYRYADALKKDNGEYTVDVADKGYTLNIKFAGKEKTPEEPKEEVTIKANLIYADGKTQTAEFKGTFEEATAEAYRYADLLAKENGKYTVDVADKGYTLNIKFAGKEKTPEEPKEEVTIKANLIYADGKTQTAEFKGTFAEATAEAYRYADLLAKENGKYTADLEDGGYTINIRFAGKKVDEKPEEPMDTYKLILNGKTLKGETTTEAVDAATAEKVFKQYANDNGVDGEWTYDDATKTFTVTEKPEVIDASELTPAVTTYKLVINGKTLKGETTTKAVDAETAEKAFKQYANDNGVDGVWTYDDATKTFTVTEM
